{"source": "patent US20210255174", "proteins": {"B1": {"name": "Proteinase K (protein)", "chain": "AAQTNAPWGLARISSTSPGTSTYYYDESAGQGSCVYVIDTGIEASHPEFEGRAQMVKTYYYSSRDGNGHGTHCAGTVGSRTYGVAKKTQLFGVKVLDDNGSGQYSTIIAGMDFVASDKNNRNCPKGVVASLSLGGGYSSSVNSAAARLQSSGVMVAVAAGNNNADARNYSPASEPSVCTVGASDRYDRRSSFSNYGSVLDIFGPGTSILSTWIGGSTRSISGTSMATPHVAGLAAYLMTLGKTTAASACRYIADTANKGDLSNIPFGTVNLLAYNNYQA"}, "B2": {"name": "Thermolysin (protein)", "chain": "ITGTSTVGVGRGVLGDQKNINTTYSTYYYLQDNTRGNGIFTYDAKYRTTLPGSLWADADNQFFASYDAPAVDAHYYAGVTYDYYKNVHNRLSYDGNNAAIRSSVHYSQGYNNAFWNGSQMVYGDGDGQTFIPLSGGIDVVAHELTHAVTDYTAGLIYQNESGAINEAISDIFGTLVEFYANKNPDWEIGEDVYTPGISGDSLRSMSDPAKYGDPDHYSKRYTGTQDNGGVHINSGIINKAAYLISQGGTHYGVSVVGIGRDKLGKIFYRALTQYLTPTSNFSQLRAAAVQSATDLYGSTSQEVASVKQAFDAVGVK"}}, "key": {"[1]": {"target": "Control peptide #112: [5-Fam]…[DABCYL]-Hex"}, "[2]": {"target": "Control peptide #113: [4-Mu]…[DABCYL]-Hex"}}, "data": [{"protein": "B1", "values": [{"measurement": "KM", "setting": "[1]", "result": 3.37, "unit": "µM"}, {"measurement": "KM", "setting": "[2]", "result": 4.87, "unit": "µM"}]}, {"protein": "B2", "values": [{"measurement": "KM", "setting": "[1]", "result": 3.58, "unit": "µM"}, {"measurement": "KM", "setting": "[2]", "result": 6.45, "unit": "µM"}]}]}
